Measured values: the supplement of paper PMC10567573
± gives the standard deviation.

Test: protein stability index of a GFP-peptide fusion (GPS, HEK-293T) (PSI 1-6); higher = more stable
[1] = treatment: DMSO, c terminus: a fixed tail appended
[2] = treatment: MLN4924 1 uM, 8 h, c terminus: a fixed tail appended
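Note: 24-mer peptide tiles fused after GFP, lentivirally expressed, FACS-sorted into six equal bins by GFP/DsRed ratio, decoded by Illumina sequencing, PSI is the read-weighted mean bin number.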

Sequence	protein stability index [1]	protein stability index [2]	protein stability index (treatment: DMSO, c terminus: native)	protein stability index (treatment: MLN4924 1 uM, 8 h, c terminus: native)
LSPEVLRKEAYGKPVDIWACGVIL [CAMK2B]	2.62 ± 0.71	2.51 ± 0.4		
LSQSPEPGRRGDPDTAPPSERPLE [RTN2]	5.56 ± 0.24	5.56 ± 0.15		
LSSSIIHEIDSILGNKPYSKKDYR [KCNAB2]	2.65 ± 0.26	3.24 ± 0.45		
LSSVDMRMTSSPSSIPRRDDFFRH [RAD54B]	3.21 ± 0.28	3.38 ± 0.34		
LSSYISINSDTGVLYALRSFDYEQ [PCDHGA10]	2.12 ± 0.23	2.27 ± 0.092		
LTCSLSFLLCARSLLRGFLLQNEF [MCOLN1]	3.34 ± 0.44	2.93 ± 0.46		
LTDGHFENILADNSVNDQTKILVV [SERPINB5]	3.09 ± 0.44	3.67 ± 0.29		
LTENTAENRELYIKTTLRELLVYI [PKD2L1]	2.31 ± 0.36	2.45 ± 0.33		
LTGTARYMSINTHLGKEQSRRDDL [CSNK1G1]	3.9 ± 0.31	4.02 ± 0.46		
LTQWKDSLVSLVLYNMDLSDDHIR [ZER1]	2.52 ± 0.32	2.31 ± 0.097		
LTRPEPVHEFCAGRECQPRWETSS [ADAMTSL2]	3.76 ± 0.15	3.98 ± 0.42		
LVHIVCHKKTTHKLNCDPSRIYKP [DFFB]	2.41 ± 0.11	1.96 ± 0.41		
LVKQECIKEVVEKREACHCEEVKM [FAN1]	4.54 ± 0.4	4.7 ± 0.23		
LVLQTSEGKALQQYPSERELRGI [TRIM9]			3.01 ± 0.96	2.98 ± 0.54
LVTTHHLMVHGNERFIQYLASRNT [SNAP91]	2.18 ± 0.17	2.07 ± 0.42		
LVYHPVQLSTPHAVGVLLLGLVGY [DHCR7]	3.5 ± 0.77	3.08 ± 0.23		
LYPSAPILGGSGPVRKLYDDCSST [ESRRG]	3.82 ± 0.3	3.72 ± 0.24		
MAESWLRLSGAGPAEEAGPEGGLE [FOXJ1]	4.67 ± 0.17	5.01 ± 0.22		
MDEISEKLKKGICEALEDSDGRQD [MATN2]	5.42 ± 0.25	5.4 ± 0.17		
MECYDIYSKTWTKQPDLTMVRKIG [GAN]	2.14 ± 0.34	2.66 ± 0.23		
MEGLETAEGSNSESSDDDSEEAPS [SDE2]	5.51 ± 0.2	5.51 ± 0.39		
MEIATYRKLLESEECRMSGEFPSP [KRT71]	3.91 ± 0.53	4.07 ± 0.36		
MENQVLTPHVYWAQRHRELYLRVE [HACD3]	2.4 ± 0.31	2.35 ± 0.27		

Sequence	protein stability index [1]	protein stability index [2]	protein stability index (treatment: DMSO, c terminus: native)	protein stability index (treatment: MLN4924 1 uM, 8 h, c terminus: native)
MEPSPLSPSGAALPLPLSLAPPPL [ZBTB22]	4.07 ± 0.35	4.11 ± 0.18		
MESKRLRLLQEEDRRKKIARMGFN [DCAF4]	3.44 ± 0.36	3.73 ± 0.48		
MFLHPVDYGRKAEELLWRKVYYEV [SMG5]	2.45 ± 0.59	2.11 ± 0.22		
MGQKVTGGIKTVDMRDPTYRPLKQ [SPSB1]	3.89 ± 0.22	4.01 ± 0.28		
MKKIKKLENDTISKQLTLEQLRRE [CCDC6]	3.71 ± 1.1	3.84 ± 0.67		
MKLFDSICNNKWFTDTSIILFLNK [GNAI1]	2.6 ± 0.59	2.58 ± 0.59		
MKVEAKSHLQWQESRLKRSNPLAR [ZSCAN9]	3.35 ± 0.33	3.67 ± 0.19		
MLGYKRHLALHAASSGDLTCGVCA [PLAGL1]	2.53 ± 0.23	2.73 ± 0.4		
MLLSVSQSMSEEEREKVTPLMVKG [SEPHS2]	3.83 ± 0.36	3.86 ± 0.43		
MLREPAEPVAAEPKQSGSFRYLQG [PDLIM4]	4.18 ± 0.12	4.25 ± 0.17		
MNARGLGSELKDSIPVTELSASGP [POMP]	4.78 ± 0.34	4.62 ± 0.23		
MNNAQRIEKWVILEKDFSIYGGEL [ACSBG2]	2.2 ± 0.12	2.28 ± 0.57		
MPLSGTPAPNKKRKSSKLIMELTG [MYOZ1]	3.63 ± 0.24	3.81 ± 0.22		
MQVHKETIDAVPNAIPGRTDIELE [ZNF207]	4.97 ± 0.15	5.17 ± 0.18		
MRAPMLQKQQAPRMDTPPPEERLE [CCDC89]	5.21 ± 0.24	5.29 ± 0.29		
MRILAHGELVLATAISSFTRHVFT [TLE6]	3.1 ± 0.61	2.76 ± 0.35		
MSEGKPPDKKKRPRRSLSISKNKK [FAN1]	5.08 ± 0.17	5.07 ± 0.21		
MSEWSECTAKCGERSVVTRDIRCS [ADAMTSL2]	3.87 ± 0.45	3.74 ± 0.051		
MSNKDRHIDSSCSSFIKTEPSSPA [ESRRG]	4.33 ± 0.18	4.33 ± 0.17		
MTPDIHELVENIKSVLKSDEEHME [FAM189A2]	4.72 ± 0.24	4.39 ± 0.66		
MVDSFHRTSLQYGIMCLKRLNYDR [PPFIA4]	1.88 ± 0.15	2.27 ± 0.2		
MYILSPAVLRRIQLQPTSIEKEVF [GMPPB]	2.29 ± 0.42	2.24 ± 0.41		
